For the test, the target named is T1, human TIGIT-hFc (human, UniProt Q495A1 22-141).
T1 sequence (looked up): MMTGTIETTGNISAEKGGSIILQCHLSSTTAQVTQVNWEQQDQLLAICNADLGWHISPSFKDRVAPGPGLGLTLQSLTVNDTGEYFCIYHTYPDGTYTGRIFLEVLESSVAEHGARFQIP
The experiment in a line: indirect ELISA screen of hybridomas with human TIGIT-hFc as antigen.

B1: 26B12 (antibody, V domains shown)
VH: EVQLQESGPGLVKPSQSLSLTCTVTGHSFTSDYAWNWIRQFPGNRLEWMGYISYSDSTNYNPSLKSRISITRDTSKNQFFLQMNSVTTEDTATYYCARLDYGNYGGAMDYWGQGTSVTVSS
VL: DIVLTQSHEFMSTSLRDRVSITCKSSQHVSTAVAWYQQKPGQSPKLLIYSASYRYTGVPDRFTGSGSGTDFTFTISSVKAEDLAVYYCQQHYITPWTFGGGTKLEIK
notes: Murine monoclonal antibody from a hybridoma; also called anti-TIGIT antibody 26B12; monoclonal antibody secreted by hybridoma cell line LT019
In the case of B1, the binding result was “binds”.

Source of the values: EP4778535A1 (Akeso Biopharma Co., Ltd., dated 2026).
